According to article PMC2857867 (The FASEB Journal, 2010):

B1: mIFNα-A (ligand)
chain: CDLPHTYNLRNKRALKVLAQMRRLPFLSCLKDRQDFGFPLEKVDNQQIQKAQAIPVLRDLTQQTLNLFTSKASSAAWNATLLDSFCNDLHQQLNDLQTCLMQQVGVQEPPLTQEDALLAVRKYFHRITVYLREKKHSPCAWEVVRAEVWRALSSSVNLLPRLSEEKE
B2: mIFNβ (ligand)
chain: INYKQLQLQERTNIRKCQELLEQLNGKINLTYRADFKIPMEMTEKMQKSYTAFAIQEMLQNVFLVFRNNFSSTGWNETIVVRLLDELHQQTVFLKTVLEEKQEERLTWEMSSTALHLKSYYWRVQRYLKLMKYNSYAWMVVRAEIFRNFLIIRRLTRNFQN
B3: mIL-10 (ligand)
chain: SRGQYSREDNNCTHFPVGQSHMLLELRTAFSQVKTFFQTKDQLDNILLTDSLMQDFKGYLGCQALSEMIQFYLVEVMPQAEKHGPEIKEHLNSLGEKLKTLRMRLRRCHRFLPCENKSKAVEQVKSDFNKLQDQGVYKAMNEFDIFINCIEAYMMIKMKS
B4: mIL-28A (ligand)
chain: DPVPRATRLPVEAKDCHIAQFKSLSPKELQAFKKAKDAIEKRLLEKDLRCSSHLFPRAWDLKQLQVQERPKALQAEVALTLKVWENMTDSALATILGQPLHTLSHIHSQLQTCTQLQATAEPRSPSRRLSRWLHRLQEAQSKETPGCLEASVTSNLFRLLTRDLKCVANGDQCV
B5: hIL-28A (ligand)
chain: VPVARLHGALPDARGCHIAQFKSLSPQELQAFKRAKDALEESLLLKDCRCHSRLFPRTWDLRQLQVRERPMALEAELALTLKVLEATADTDPALVDVLDQPLHTLHHILSQFRACIQPQPTAGPRTRGRLHHWLYRLQEAPKKESPGCLEASVTFNLFRLLTRDLNCVASGDLCV

Columns and labels:
[1] = target: T1, VACV strain WR IFNα/βBP B18 (vaccinia virus strain Western Reserve, UniProt P25213 20-351); test: SPR
[2] = target: T1, VACV strain WR IFNα/βBP B18; test: SPR; remark: listed apart in the source

| Binder | Kd [1] [nM] | koff [1] [s⁻¹] | kon [1] [M⁻¹ s⁻¹] | binding result [2] |
| --- | --- | --- | --- | --- |
| B1 | 0.455 | 0.000784 | 1.72e+06 | – |
| B2 | 3.2 | 0.000333 | 104000 | – |
| B3 | – | – | – | binds |
| B4 | 13.4 | 0.0112 | 832000 | – |
| B5 | 14.9 | 0.00364 | 245000 | – |
